# Reference: US20240034757A1 (OXFORD UNIVERSITY INNOVATION, published 2024)
# Positions count from the first letter of the chain named. In names and notes the source's numbering stands. Read-outs that look alike come from different tables or passages of the source.
# B1: P1243:G4S:P1156 (designed binder)
# chain: RNHTEDNSTEYYDYEEARCACPARHLNNTNGTVLKLLGCHYFCNGTLCTAPDGYPCYNLTAQQVRTLTTYPNTSCAVGVCMKGTCVKNGTMEQCFKTPGGGGSADDDNELFTVQYCGMNCTKDEGGTWTGCTGKKEGCKCYHESGKNYGLCLSTEYTDFSQYGNPSDSEIEAAKPKRSDTLSH
# B2: P1156:G4S:P991 (designed binder)
# chain: ADDDNELFTVQYCGMNCTKDEGGTWTGCTGKKEGCKCYHESGKNYGLCLSTEYTDFSQYGNPSDSEIEAAKPKRSDTLSHGGGGSENGEGTTQPDYDNSTDYYNYEDFKCTCPAPHLNNTNGTVMKPIGCYYTCNVTRCTAPDTYPCYNLTEHQAKNLTTSPTTLCAVGNCDHGICVPNGTKELCFKAPNLEE
# notes: also called two-warhead evasin
# B3: P991:G4S:P1156 (designed binder)
# chain: ENGEGTTQPDYDNSTDYYNYEDFKCTCPAPHLNNTNGTVMKPIGCYYTCNVTRCTAPDTYPCYNLTEHQAKNLTTSPTTLCAVGNCDHGICVPNGTKELCFKAPNLEEGGGGSADDDNELFTVQYCGMNCTKDEGGTWTGCTGKKEGCKCYHESGKNYGLCLSTEYTDFSQYGNPSDSEIEAAKPKRSDTLSH
# Columns and labels:
# Assay in all cases: BLI
# CCL7_HUMAN [1] = target: T1, CCL7_HUMAN (human, UniProt P80098 24-99)
# CCL11_HUMAN [2] = target: T2, CCL11_HUMAN (human, UniProt P51671 24-97)
# CCL14_HUMAN [3] = target: T3, CCL14_HUMAN (human, UniProt Q16627 22-93)
# T3 sequence: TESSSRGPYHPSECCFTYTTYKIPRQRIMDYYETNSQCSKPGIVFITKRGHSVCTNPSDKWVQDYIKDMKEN
# CCL16_HUMAN = target: T4, CCL16_HUMAN (human, UniProt O15467 24-120)
# T4 sequence: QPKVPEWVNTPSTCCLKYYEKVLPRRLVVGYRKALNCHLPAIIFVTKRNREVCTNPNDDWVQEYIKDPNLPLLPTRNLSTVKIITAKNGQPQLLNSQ
# CCL20_HUMAN [4] = target: T5, CCL20_HUMAN (human, UniProt P78556 27-96)
# CCL22_HUMAN [5] = target: T6, CCL22_HUMAN (human, UniProt O00626 25-93)
# T6 sequence: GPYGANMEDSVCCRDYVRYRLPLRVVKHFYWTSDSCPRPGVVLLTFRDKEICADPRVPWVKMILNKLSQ
# CCL3_HUMAN [6] = target: T7, CCL3_HUMAN (human, UniProt P10147 24-92)
# T7 sequence: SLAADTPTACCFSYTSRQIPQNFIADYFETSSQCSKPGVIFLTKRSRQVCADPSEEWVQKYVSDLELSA
# CCL5_HUMAN = target: T8, CCL5_HUMAN (human, UniProt P13501 24-91)
# T8 sequence: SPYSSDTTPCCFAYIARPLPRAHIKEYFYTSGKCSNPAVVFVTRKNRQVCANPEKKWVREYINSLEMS
# CCL7_HUMAN [7] = target: T1, CCL7_HUMAN; remark: listed apart in the source
# CCL8_HUMAN = target: T9, CCL8_HUMAN (human, UniProt P80075 24-99)
# T9 sequence (looked up): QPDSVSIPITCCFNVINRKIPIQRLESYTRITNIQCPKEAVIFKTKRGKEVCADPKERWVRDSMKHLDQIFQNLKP
# CCL11_HUMAN [8] = target: T2, CCL11_HUMAN; remark: listed apart in the source
# CCL14_HUMAN [9] = target: T3, CCL14_HUMAN; remark: listed apart in the source
# CCL18_HUMAN = target: T10, CCL18_HUMAN (human, UniProt P55774 21-89)
# T10 sequence: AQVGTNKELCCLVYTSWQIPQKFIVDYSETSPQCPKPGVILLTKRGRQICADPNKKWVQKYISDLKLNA
# CCL19_HUMAN = target: T11, CCL19_HUMAN (human, UniProt Q99731 22-98)
# T11 sequence: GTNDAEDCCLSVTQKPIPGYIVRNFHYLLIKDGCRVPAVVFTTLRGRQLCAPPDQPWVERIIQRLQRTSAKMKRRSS
# CCL20_HUMAN [10] = target: T5, CCL20_HUMAN; remark: listed apart in the source
# CCL21_HUMAN = target: T12, CCL21_HUMAN (human, UniProt O00585 24-134)
# T12 sequence: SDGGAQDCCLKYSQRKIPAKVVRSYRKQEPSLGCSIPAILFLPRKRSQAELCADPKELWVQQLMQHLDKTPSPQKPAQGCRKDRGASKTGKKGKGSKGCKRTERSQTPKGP
# CCL22_HUMAN [11] = target: T6, CCL22_HUMAN; remark: listed apart in the source
# CCL24_HUMAN = target: T13, CCL24_HUMAN (human, UniProt O00175 27-104)
# T13 sequence: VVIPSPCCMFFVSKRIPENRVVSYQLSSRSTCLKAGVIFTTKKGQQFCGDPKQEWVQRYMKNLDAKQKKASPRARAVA
# CCL27_HUMAN = target: T14, CCL27_HUMAN (human, UniProt Q9Y4X3 25-112)
# T14 sequence: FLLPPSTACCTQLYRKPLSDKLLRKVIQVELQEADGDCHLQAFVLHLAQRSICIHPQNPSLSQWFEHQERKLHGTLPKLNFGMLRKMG
# CCL1_HUMAN = target: T15, CCL1_HUMAN (human, UniProt P22362 24-96)
# T15 sequence: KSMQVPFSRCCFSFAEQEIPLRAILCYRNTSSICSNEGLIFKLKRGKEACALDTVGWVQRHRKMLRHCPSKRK
# CCL3_HUMAN [12] = target: T7, CCL3_HUMAN; remark: listed apart in the source
# CCL4_HUMAN = target: T16, CCL4_HUMAN (human, UniProt P13236 24-92)
# T16 sequence: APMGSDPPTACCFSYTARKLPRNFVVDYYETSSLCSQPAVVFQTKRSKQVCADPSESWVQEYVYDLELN
# CCL4L1_HUMAN = target: T17, CCL4L1_HUMAN (human, UniProt Q8NHW4 24-92)
# T17 sequence: T16 sequence with S47G
# T1 sequence (P80098 24-99 limits assumed): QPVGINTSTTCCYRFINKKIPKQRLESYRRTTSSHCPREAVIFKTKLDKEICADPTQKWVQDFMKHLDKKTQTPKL
# T2 sequence (P51671 24-97 limits assumed): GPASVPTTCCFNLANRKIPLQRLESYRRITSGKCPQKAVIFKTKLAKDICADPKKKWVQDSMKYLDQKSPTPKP
# T5 sequence (P78556 27-96 limits assumed): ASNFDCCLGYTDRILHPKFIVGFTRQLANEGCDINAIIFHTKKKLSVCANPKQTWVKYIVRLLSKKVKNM
Binder,Kd (CCL5_HUMAN) [nM],RT (CCL5_HUMAN) [min],Kd (CCL7_HUMAN [7]) [nM],RT (CCL7_HUMAN [7]) [min],Kd (CCL8_HUMAN) [nM],RT (CCL8_HUMAN) [min],Kd (CCL11_HUMAN [8]) [nM],RT (CCL11_HUMAN [8]) [min],Kd (CCL14_HUMAN [9]) [nM],RT (CCL14_HUMAN [9]) [min],Kd (CCL18_HUMAN) [nM],RT (CCL18_HUMAN) [min],binding result (CCL19_HUMAN),binding result (CCL20_HUMAN [10]),Kd (CCL21_HUMAN) [nM],RT (CCL21_HUMAN) [min],Kd (CCL22_HUMAN [11]) [nM],RT (CCL22_HUMAN [11]) [min],Kd (CCL24_HUMAN) [nM],RT (CCL24_HUMAN) [min],also measured
B1,–,–,–,–,–,–,–,–,–,–,–,–,–,–,–,–,–,–,–,–,Kd (CCL7_HUMAN [1]): 49 nM; Kd (CCL11_HUMAN [2]): 19.7 nM; Kd (CCL14_HUMAN [3]): 1.99 nM; binding result (CCL16_HUMAN): no binding (tested: 300 nM); binding result (CCL20_HUMAN [4]): no binding (tested: 300 nM); binding result (CCL22_HUMAN [5]): no binding (tested: 300 nM); Kd (CCL3_HUMAN [6]): 16.4 nM
B2,0.754,103,0.435,231,7.45,15.3,1.54,24.8,0.664,159,0.201,182,no binding,no binding,19.9,15.3,2.18,15.8,3.58,6.75,Kd (CCL27_HUMAN): 36.2 nM; RT (CCL27_HUMAN): 3.4 min; Kd (CCL1_HUMAN): 16.6 nM; RT (CCL1_HUMAN): 2.01 min; Kd (CCL3_HUMAN [12]): 1.89 nM; RT (CCL3_HUMAN [12]): 38.2 min; Kd (CCL4_HUMAN): 3.55 nM; RT (CCL4_HUMAN): 26.6 min; Kd (CCL4L1_HUMAN): 1.28 nM; RT (CCL4L1_HUMAN): 33.8 min
B3,0.947,92,0.287,375,7.89,16.6,1.39,30.6,0.835,135,0.143,293,no binding,no binding,18.2,17.7,2.36,15.6,3.18,8.52,Kd (CCL27_HUMAN): 42.6 nM; RT (CCL27_HUMAN): 2.91 min; Kd (CCL1_HUMAN): 7.66 nM; RT (CCL1_HUMAN): 4.13 min; Kd (CCL3_HUMAN [12]): 2.22 nM; RT (CCL3_HUMAN [12]): 37.1 min; Kd (CCL4_HUMAN): 3.54 nM; RT (CCL4_HUMAN): 28.1 min; Kd (CCL4L1_HUMAN): 1.24 nM; RT (CCL4L1_HUMAN): 38.3 min
